The target of assay [1] is β-gal-Core-192 (HCV-241) (hepatitis C virus). The assay can be described thus: sandwich ELISA, C7-50 coated, detected with llama serum and HRP-goat-anti-llama antibody.
For assay [2] the target is unchanged. The assay can be described thus: lateral flow immunoassay, C7-50 labelled with colloidal gold, purified rabbit antibody on the test line.
The target is the same in assay [3]. The assay can be described thus: sandwich ELISA, C7-50 capture, llama anti-serum detection.

Sequence of β-gal-Core-192 (HCV-241) (hepatitis C virus) (P00722 2-1024): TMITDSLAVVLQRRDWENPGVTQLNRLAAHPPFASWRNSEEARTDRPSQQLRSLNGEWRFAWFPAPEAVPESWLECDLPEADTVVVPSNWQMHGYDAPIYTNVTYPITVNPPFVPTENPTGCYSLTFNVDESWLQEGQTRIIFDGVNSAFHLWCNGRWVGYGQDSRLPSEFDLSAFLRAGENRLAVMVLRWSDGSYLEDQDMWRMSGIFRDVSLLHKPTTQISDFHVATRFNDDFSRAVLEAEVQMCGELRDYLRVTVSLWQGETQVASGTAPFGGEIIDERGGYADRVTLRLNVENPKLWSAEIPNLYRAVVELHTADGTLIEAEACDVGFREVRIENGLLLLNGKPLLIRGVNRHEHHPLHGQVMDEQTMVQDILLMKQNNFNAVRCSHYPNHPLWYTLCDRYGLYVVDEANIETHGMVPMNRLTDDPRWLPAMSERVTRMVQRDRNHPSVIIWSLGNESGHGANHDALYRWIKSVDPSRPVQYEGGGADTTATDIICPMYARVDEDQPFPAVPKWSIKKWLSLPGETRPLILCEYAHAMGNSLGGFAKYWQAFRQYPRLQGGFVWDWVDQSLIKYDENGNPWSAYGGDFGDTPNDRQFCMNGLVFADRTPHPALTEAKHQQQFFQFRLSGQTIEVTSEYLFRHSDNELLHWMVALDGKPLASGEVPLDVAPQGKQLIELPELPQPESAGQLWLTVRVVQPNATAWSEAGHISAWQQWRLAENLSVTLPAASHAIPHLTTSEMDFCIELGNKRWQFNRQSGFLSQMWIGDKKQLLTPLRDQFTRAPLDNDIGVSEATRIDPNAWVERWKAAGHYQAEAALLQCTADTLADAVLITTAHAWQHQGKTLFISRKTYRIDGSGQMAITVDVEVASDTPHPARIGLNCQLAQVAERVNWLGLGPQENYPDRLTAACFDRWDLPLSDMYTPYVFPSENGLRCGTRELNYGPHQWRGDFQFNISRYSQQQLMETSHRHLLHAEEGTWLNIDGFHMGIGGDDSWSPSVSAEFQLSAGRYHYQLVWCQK

In assay [1], “mouse monoclonal antibody (clone C7-50), Abcam” displayed an OD450 at 0 ng/ml antigen (background) of 0.181 OD450, an OD450 at 8 ng/ml antigen of 0.221 OD450, an OD450 at 40 ng/ml antigen of 0.214 OD450 and an OD450 at 200 ng/ml antigen of 0.3 OD450. In assay [1], the OD450 at 1000 ng/ml antigen was 0.494 OD450, the OD450 at 5000 ng/ml antigen turned out to be 1.74 OD450, the OD450 at 25000 ng/ml antigen was 2.18 OD450 and the OD450 at 125000 ng/ml antigen worked out at 2.27 OD450. This substance also displayed an antigen concentration detected in LFIA in assay [2] of 0.3 ng/µL. In assay [3], this substance returned a detection limit of the sandwich ELISA below 40 ng/mL.
